Laboratory results taken from publication doi:10.1101/2021.08.21.457230.

Molecular target: T1, human SLC44A1 (human), Q8WWI5
T1 chain: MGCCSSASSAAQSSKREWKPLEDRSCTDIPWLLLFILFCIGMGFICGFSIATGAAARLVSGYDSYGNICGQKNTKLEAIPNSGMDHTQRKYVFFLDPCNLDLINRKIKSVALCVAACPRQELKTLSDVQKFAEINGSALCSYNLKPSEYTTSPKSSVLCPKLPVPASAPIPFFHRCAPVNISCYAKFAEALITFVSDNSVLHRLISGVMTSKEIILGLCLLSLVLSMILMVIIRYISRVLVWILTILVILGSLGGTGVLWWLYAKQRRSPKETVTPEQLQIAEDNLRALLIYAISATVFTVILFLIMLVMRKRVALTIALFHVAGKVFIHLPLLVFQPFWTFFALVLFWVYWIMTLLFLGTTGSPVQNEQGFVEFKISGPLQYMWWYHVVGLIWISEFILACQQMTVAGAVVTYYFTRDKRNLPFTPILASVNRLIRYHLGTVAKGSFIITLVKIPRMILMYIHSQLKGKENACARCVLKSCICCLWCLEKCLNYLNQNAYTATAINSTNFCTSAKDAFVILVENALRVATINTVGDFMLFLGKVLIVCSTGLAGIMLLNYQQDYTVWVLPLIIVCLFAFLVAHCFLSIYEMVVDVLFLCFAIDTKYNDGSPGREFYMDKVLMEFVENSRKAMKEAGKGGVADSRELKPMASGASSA
Experiment: cryo-EM structure
Conditions: remark: other sources report otherwise

B1: human SLC44A1, Q8WWI5 1-657 (natural protein)
chain: T1 chain
- stoichiometry N: 2
